The text below walks through data of patent US20250215083A1 (JIANGSU HENGRUI PHARMACEUTICALS, published 2025).

Like-named read-outs stand apart in the source and are kept apart here.

In one experiment the target is T1, hCTLA4 (human, UniProt P16410 36-161).
T1 construct: purchased from Sino biology
The experiment can be described thus: ELISA per WO2021139758 Test Example 4. In general terms: ELISA stands for enzyme-linked immunosorbent assay.

Another experiment addresses T2, hPDL1 (human, UniProt Q9NZQ7 19-238).
T2 construct: purchased from Sino biology
Kind of experiment: ELISA per WO2021139758 Test Example 4.

The target of experiment [1] is T3, human GPRC5D (human, UniProt Q9NZD1 1-345).
T3 construct: whole, on cells; also called membrane surface GPRC5D
Kind of experiment: FACS, MM.1R cells. As for the experimental part: (§1) To test the capacity of the GPRC5D/CD3 bispecific antibodies of the present disclosure to bind to GPRC5D, a flow cytometry assay was used in this test example to measure the capacity of the GPRC5D/CD3 bispecific antibodies to bind to the human multiple myeloma cell line MM.1R (ATCC® CRL-2975), which expresses GPRC5D, and to a stably transfected cell strain CHOK1-cynoGPRC5D, which expresses cynomolgus monkey GPRC5D. The specific procedure was as follows: The cells described above were cultured in complete culture medium containing 10% FBS, incubated in a 37° C., 5% CO₂ incubator for 2 days, and added to a cell plate at 1×10⁵ cells/well. The plate was centrifuged at 300 g for 5 min and washed once with 1% BSA. The antibodies were serially diluted to 8 concentrations and added to the cell plate at 100 μL/well. The plate was incubated at 4° C. for 1 h and washed once with 1% BSA. […] The plate was washed three times with 1% BSA, PBS was added at 100 μL/well, and plate reading was performed.
On the technique in general: In flow cytometry, cells or beads pass a laser one at a time.

For experiment [2], the target named is T3, human GPRC5D. The experiment can be described thus: FACS, MM.1R cells. The procedure: as §1
The source holds these as a separate data set.

The target of experiment [3] is T4, cynomolgus monkey GPRC5D (cynomolgus monkey).
T4 construct: whole, on cells; also called CynoGPRC5D; cynoGPRC5D
Kind of experiment: FACS, CHOK1-cynoGPRC5D cells. The procedure:
as §1

The target of experiment [4] is T4, cynomolgus monkey GPRC5D. The experiment can be described thus: FACS, CHOK1-cynoGPRC5D cells. The procedure:
as §1
The source holds these as a separate data set.

T3 sequence (Q9NZD1 whole entry): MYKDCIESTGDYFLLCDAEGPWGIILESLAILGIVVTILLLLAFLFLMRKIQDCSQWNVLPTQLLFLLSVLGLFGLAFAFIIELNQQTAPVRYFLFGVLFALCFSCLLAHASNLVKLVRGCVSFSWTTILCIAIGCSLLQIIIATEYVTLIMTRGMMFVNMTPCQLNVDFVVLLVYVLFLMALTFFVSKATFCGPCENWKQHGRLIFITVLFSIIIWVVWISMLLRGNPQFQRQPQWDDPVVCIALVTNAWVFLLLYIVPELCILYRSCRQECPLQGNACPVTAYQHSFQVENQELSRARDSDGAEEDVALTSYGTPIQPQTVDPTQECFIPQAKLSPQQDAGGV
T1 sequence (P16410 36-161 limits assumed): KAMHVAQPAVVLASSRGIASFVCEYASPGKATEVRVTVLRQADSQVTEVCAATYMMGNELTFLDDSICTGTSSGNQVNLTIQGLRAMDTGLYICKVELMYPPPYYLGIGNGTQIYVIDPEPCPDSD
T2 sequence (Q9NZQ7 19-238 limits assumed): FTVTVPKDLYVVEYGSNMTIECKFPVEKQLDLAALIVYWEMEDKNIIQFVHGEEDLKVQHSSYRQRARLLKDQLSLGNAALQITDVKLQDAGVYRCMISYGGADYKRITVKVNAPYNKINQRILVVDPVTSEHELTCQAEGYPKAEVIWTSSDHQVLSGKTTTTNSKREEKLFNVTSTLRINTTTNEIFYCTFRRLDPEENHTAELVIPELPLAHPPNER

B1: PL-1 (bispecific antibody)
chain 1: not shown
chain 2: DIVLTQSPASLAVSPGQRATITCRASESVSIHGTHLMHWYQQKPGQPPKLLIYAASKLESGVPARFSGSGSGTDFTLTINPVEAEDTANYYCQQSFEDPLTFGQGTKLEIKGGGGSGIPPKIECLPIDISIDEGKVLTVASAFTGEPTPEVTWSTGGRKIHSQEQGRFHIENTDDLTTLIIKDVQKQDGGLYTLTLRNEFGSDSATVNIHIRSI
chain 3: not shown
chain 4: not shown
Usually EC50 stands for the concentration at which the effect is half-maximal. In the case of B1, the EC50 is 16.5 nM in the experiment with hCTLA4 and 1.6 nM with hPDL1.

B2: PL-2 (bispecific antibody)
chain 1: not shown
chain 2: DIVLTQSPASLAVSPGQRATITCRASESVSIHGTHLMHWYQQKPGQPPKLLIYAASKLESGVPARFSGSGSGTDFTLTINPVEAEDTANYYCQQSFEDPLTFGQGTKLEIKGGGGSGIPPKIECLPIDISIDEGKVLTVASAFTGEPTPEVTWSTGGRKIHSQEQGRFHIENTDDSTTLTIKDVQKQDGGLYTLTLRNEFGSDSATVNIHIRSI
chain 3: not shown
chain 4: not shown
For B2, the EC50 with hCTLA4 came to 8 nM; with hPDL1, 0.5 nM.

B3: F11-13 (bispecific antibody)
heavy: not shown
light: DIQMTQSPSSVSASVGDRVTITCKASQNVGSNVAWYQQKPGKAPKALIYSASYRYSGVPSRFSGSGSGTDFTLTISSLQPEDFATYYCHQYNSYPPTFGQGTKLEIKRTVAAPSVFIFPPSDEQLKSGTASVVCLLNNFYPREAKVQWKVDNALQSGNSQESVTEQDSKDSTYSLSSTLTLSKADYEKHKVYACEVTHQGLSSPVTKSFNRGEC
notes: formula 11
As for B3, the EC50 with human GPRC5D [1] turned out to be 1.05 nM; with human GPRC5D [2], 1.05 nM; in the experiment with cynomolgus monkey GPRC5D [3], 2.21 nM; with cynomolgus monkey GPRC5D [4], 2.21 nM. The Max was determined as 718 with human GPRC5D [1] and 28100 in the experiment with cynomolgus monkey GPRC5D [4].

B4: F11-15 (bispecific antibody)
heavy: not shown
light: DIQMTQSPSSVSASVGDRVTITCKASQNVGSNVAWYQQKPGKSPKALIYSASYRYSGVPSRFSGSGSGTDFTLTISSLQPEDFAEYYCHQYNSYPPTFGQGTKLEIKRTVAAPSVFIFPPSDEQLKSGTASVVCLLNNFYPREAKVQWKVDNALQSGNSQESVTEQDSKDSTYSLSSTLTLSKADYEKHKVYACEVTHQGLSSPVTKSFNRGEC
notes: formula 11
For the molecule B4, the EC50 with human GPRC5D [1] is 0.89 nM; in the experiment with human GPRC5D [2] it was 0.89 nM; with cynomolgus monkey GPRC5D [3], 1.45 nM; with cynomolgus monkey GPRC5D [4] it was 1.45 nM. Further, the Max with human GPRC5D [1] is 693; in the experiment with cynomolgus monkey GPRC5D [4], 24000.

B5: F11-14 (bispecific antibody)
heavy: not shown
light: DIQMTQSPSSVSASVGDRVTITCKASQNVGSNVAWYQQKPGKAPKALIYSASYRYSGVPSRFSGSGSGTDFTLTISSLQPEDFATYYCHQYNSYPPTFGQGTKLEIKRTVAAPSVFIFPPSDEQLKSGTASVVCLLNNFYPREAKVQWKVDNALQSGNSQESVTEQDSKDSTYSLSSTLTLSKADYEKHKVYACEVTHQGLSSPVTKSFNRGEC
notes: formula 11
Regarding B5, the concentration for a half-maximal effect (EC50) with human GPRC5D [1] came out at 0.88 nM; in the experiment with human GPRC5D [2], 0.88 nM; with cynomolgus monkey GPRC5D [3], 1.86 nM; in the experiment with cynomolgus monkey GPRC5D [4], 1.86 nM. The Max with human GPRC5D [1] was 633; with cynomolgus monkey GPRC5D [4] it was 25800.

B6: F11-16 (bispecific antibody)
heavy: not shown
light: DIQMTQSPSSVSASVGDRVTITCKASQNVGSNVAWYQQKPGKSPKALIYSASYRYSGVPSRFSGSGSGTDFTLTISSLQPEDFAEYYCHQYNSYPPTFGQGTKLEIKRTVAAPSVFIFPPSDEQLKSGTASVVCLLNNFYPREAKVQWKVDNALQSGNSQESVTEQDSKDSTYSLSSTLTLSKADYEKHKVYACEVTHQGLSSPVTKSFNRGEC
notes: formula 11
In the case of B6, the EC50 with human GPRC5D [1] was found to be 0.94 nM; with human GPRC5D [2], 0.94 nM; in the experiment with cynomolgus monkey GPRC5D [3] it was 2.95 nM; with cynomolgus monkey GPRC5D [4] it was 2.95 nM. Also, the Max in the experiment with human GPRC5D [1] came out at 678; with cynomolgus monkey GPRC5D [4], 25200.

B7: F4-4 (bispecific antibody)
heavy 1: not shown
light 1: not shown
heavy 2: EVQLVESGGGLVQPGGSLRLSCAASGFTFTDYYLSWVKQAPGKGLEWVAFIRNRAKGYTTEYSASVKGRFTISRDNSKNSLYLQMNSLRAEDTAVYYCARMGGKGWHFDVWGQGTTVTVSSASTKGPSVFPLAPSSKSTSGGTAALGCLVKDYFPEPVTVSWNSGALTSGVHTFPAVLQSSGLYSLSSVVTVPSSSLGTQTYICNVNHKPSNTKVDKKVEPKSCDKTHTCPPCPAPEAAGGPSVFLFPPKPKDTLMISRTPEVTCVVVDVSHEDPEVKFNWYVDGVEVHNAKTKPREEQYNSTYRVVSVLTVLHQDWLNGKEYKCKVSNKALPAPIEKTISKAKGQPREPQVCTLPPSRDELTKNQVSLSCAVKGFYPSDIAVEWESNGQPENNYKTTPPVLDSDGSFFLVSKLTVDKSRWQQGNVFSCSVMHEALHNHYTQKSLSLSPGK
light 2: DVVMTQSPLSLPVTPGEPASISCRSSQSIVHSNRNTYLEWYLQKPGQSPKLLIYKVSNRFSGVPDRFFGSGSGTDFTLKINRVEAEDVGVYYCFQGSHVPFTFGGGTKVEIKRTVAAPSVFIFPPSDEQLKSGTASVVCLLNNFYPREAKVQWKVDNALQSGNSQESVTEQDSKDSTYSLSSTLTLSKADYEKHKVYACEVTHQGLSSPVTKSFNRGEC
notes: formula 4
Turning to B7, the EC50 amounted to 12.1 nM in the experiment with human GPRC5D [1], 12.1 nM in the experiment with human GPRC5D [2], 3.15 nM in the experiment with cynomolgus monkey GPRC5D [3] and 3.15 nM with cynomolgus monkey GPRC5D [4]. Besides, the Max with human GPRC5D [1] was 13600; with cynomolgus monkey GPRC5D [4], 74900.

B8: F4-5 (bispecific antibody)
heavy 1: not shown
light 1: not shown
heavy 2: EVQLVESGGGLVQPGGSLRLSCAASGFTFTDYYLSWVKQAPGKGLEWVAFIRNRAKGYTTEYSASVKGRFTISRDNAQNSLYLQMNSLRAEDTAVYYCARMGGKGWHFDVWGQGTTVTVSSASTKGPSVFPLAPSSKSTSGGTAALGCLVKDYFPEPVTVSWNSGALTSGVHTFPAVLQSSGLYSLSSVVTVPSSSLGTQTYICNVNHKPSNTKVDKKVEPKSCDKTHTCPPCPAPEAAGGPSVFLFPPKPKDTLMISRTPEVTCVVVDVSHEDPEVKFNWYVDGVEVHNAKTKPREEQYNSTYRVVSVLTVLHQDWLNGKEYKCKVSNKALPAPIEKTISKAKGQPREPQVCTLPPSRDELTKNQVSLSCAVKGFYPSDIAVEWESNGQPENNYKTTPPVLDSDGSFFLVSKLTVDKSRWQQGNVFSCSVMHEALHNHYTQKSLSLSPGK
light 2: DVVMTQSPLSLPVTPGEPASISCRSSQSIVHSNRNTYLEWYLQKPGQSPKLLIYKVSNRFSGVPDRFFGSGSGTDFTLKINRVEAEDVGVYYCFQGSHVPFTFGGGTKVEIKRTVAAPSVFIFPPSDEQLKSGTASVVCLLNNFYPREAKVQWKVDNALQSGNSQESVTEQDSKDSTYSLSSTLTLSKADYEKHKVYACEVTHQGLSSPVTKSFNRGEC
notes: formula 4
On to B8, for which the EC50 with human GPRC5D [1] worked out at 12.8 nM; with human GPRC5D [2], 12.8 nM; in the experiment with cynomolgus monkey GPRC5D [3], 3.16 nM; with cynomolgus monkey GPRC5D [4], 3.16 nM. The Max with human GPRC5D [1] amounted to 13400; in the experiment with cynomolgus monkey GPRC5D [4] it was 71300.

B9: F11-3 (bispecific antibody)
heavy: not shown
light: DVVMTQTPLSLSVTPGQPASISCRSSQSLVHSQGNTYLYWYLQKPGQSPKLLIYKVSNRFSGVPDRFSGSGSGTDFTLKISRVEAEDVGVYYCSQSTHVPPLTFGQGTKLEIKRTVAAPSVFIFPPSDEQLKSGTASVVCLLNNFYPREAKVQWKVDNALQSGNSQESVTEQDSKDSTYSLSSTLTLSKADYEKHKVYACEVTHQGLSSPVTKSFNRGEC
notes: formula 11
Regarding B9, the concentration giving a half-maximal response (EC50) was 0.3 nM with human GPRC5D [1], 0.3 nM with human GPRC5D [2], 0.27 nM in the experiment with cynomolgus monkey GPRC5D [3] and 0.27 nM in the experiment with cynomolgus monkey GPRC5D [4]. Further, the Max stood at 1.8 with human GPRC5D [1] and 1.45 in the experiment with cynomolgus monkey GPRC5D [4].

B10: F11-5 (bispecific antibody)
heavy: not shown
light: DVVMTQTPLSLSVTPGQPASISCRSSQSLVHSSGNTYLYWYLQKPGQSPKLLIYKVSNRFSGVPDRFSGSGSGTDFTLKISRVEAEDVGVYYCSQSTHVPPLTFGQGTKLEIKRTVAAPSVFIFPPSDEQLKSGTASVVCLLNNFYPREAKVQWKVDNALQSGNSQESVTEQDSKDSTYSLSSTLTLSKADYEKHKVYACEVTHQGLSSPVTKSFNRGEC
notes: formula 11
For B10, the EC50 in the experiment with human GPRC5D [1] is 0.34 nM; with human GPRC5D [2], 0.34 nM; in the experiment with cynomolgus monkey GPRC5D [3], 0.42 nM; with cynomolgus monkey GPRC5D [4], 0.41 nM. Also, the Max with human GPRC5D [1] was determined as 1.6; with cynomolgus monkey GPRC5D [4] it was 1.12.

B11: F11-6 (bispecific antibody)
heavy: not shown
light: DVVMTQTPLSLSVTPGQPASISCRSSQSLVHSQGNTYLYWYLQKPGQSPKLLIYKVSNRFSGVPDRFSGSGSGTDFTLKISRVEAEDVGVYYCSQSTHVPPLTFGQGTKLEIKRTVAAPSVFIFPPSDEQLKSGTASVVCLLNNFYPREAKVQWKVDNALQSGNSQESVTEQDSKDSTYSLSSTLTLSKADYEKHKVYACEVTHQGLSSPVTKSFNRGEC
notes: formula 11
As to B11, the EC50 with human GPRC5D [1] was 0.23 nM; in the experiment with human GPRC5D [2], 0.23 nM; with cynomolgus monkey GPRC5D [3], 0.32 nM; with cynomolgus monkey GPRC5D [4], 0.32 nM. Moreover, the Max with human GPRC5D [1] was 1.6; with cynomolgus monkey GPRC5D [4], 1.35.

B12: F11-4 (bispecific antibody)
heavy: not shown
light: DIVMTQTPLSLSVTPGQPASISCRSSQSLVHSNGNTYLYWYLQKPGQSPQLLIYKVSNRFSGVPDRFSGSGSGTDFTLKISRVEAEDVGVYYCSQSTHVPPLTFGQGTKLEIKRTVAAPSVFIFPPSDEQLKSGTASVVCLLNNFYPREAKVQWKVDNALQSGNSQESVTEQDSKDSTYSLSSTLTLSKADYEKHKVYACEVTHQGLSSPVTKSFNRGEC
notes: formula 11
With B12, the half-maximal effective concentration (EC50) in the experiment with human GPRC5D [1] was found to be 0.39 nM; with human GPRC5D [2], 0.39 nM; in the experiment with cynomolgus monkey GPRC5D [3], 0.28 nM; with cynomolgus monkey GPRC5D [4], 0.28 nM. Also, the results for the Max in the experiment with human GPRC5D [1] and with cynomolgus monkey GPRC5D [4] were 1.66 and 1.27, respectively.
